To fix the notation:
B1: CE115HA000 H chain altered form N31S (antibody, human IgG1, kappa, L234A L235A, N297A, name in Kabat numbering)
heavy: QVQLVESGGGVVQPGRSLRLSCAASGFTFSSAWMHWVRQAPGKGLEWVAQIKAKSNNYATYYAESVKGRFTISRDDSKNSLYLQMNSLKTEDTAVYYCRYVHYGAYYGVDAWGQGTTVTVSSASTKGPSVFPLAPSSKSTSGGTAALGCLVKDYFPEPVTVSWNSGALTSGVHTFPAVLQSSGLYSLSSVVTVPSSSLGTQTYICNVNHKPSNTKVDKKVEPKSCDKTHTCPPCPAPEAAGGPSVFLFPPKPKDTLMISRTPEVTCVVVDVSHEDPEVKFNWYVDGVEVHNAKTKPREEQYASTYRVVSVLTVLHQDWLNGKEYKCKVSNKALPAPIEKTISKAKGQPREPQVYTLPPSRCELTKNQVSLSCAVKGFYPSDIAVEWESNGQPENNYKTTPPVLDSDGSFFLVSKLTVDKSRWQQGNVFSCSVMHEALHNHYTQKSLSLSPDYKDDDDK
chain: EPKSSDKTHTCPPCPAPELLGGPSVFLFPPKPKDTLMISRTPEVTCVVVDVSHEDPEVKFNWYVDGVEVHNAKTKPREEQYNSTYRVVSVLTVLHQDWLNGKEYKCKVSNKALPAPIEKTISKAKGQPREPQVCTLPPSRDELTKNQVSLWCLVKGFYPSDIAVEWESNGQPENNYKTTPPVLDSDGSFFLYSKLTVDKSRWQQGNVFSCSVMHEALHNRYTQKSLSLSP
light: DIVMTQSPLSLPVTPGEPASISCRSSQSLVHSNRNTYLHWYQQKPGQAPRLLIYKVSNRFSGVPDRFSGSGSGTDFTLKISRVEAEDVGVYYCGQGTQVPYTFGQGTKLEIKRTVAAPSVFIFPPSDEQLKSGTASVVCLLNNFYPREAKVQWKVDNALQSGNSQESVTEQDSKDSTYSLSSTLTLSKADYEKHKVYACEVTHQGLSSPVTKSFNRGEC
notes: one-arm antibody
B2: CE115HA000 H chain altered form N31Y (antibody, human IgG1, kappa, L234A L235A, N297A, name in Kabat numbering)
heavy: QVQLVESGGGVVQPGRSLRLSCAASGFTFSYAWMHWVRQAPGKGLEWVAQIKAKSNNYATYYAESVKGRFTISRDDSKNSLYLQMNSLKTEDTAVYYCRYVHYGAYYGVDAWGQGTTVTVSSASTKGPSVFPLAPSSKSTSGGTAALGCLVKDYFPEPVTVSWNSGALTSGVHTFPAVLQSSGLYSLSSVVTVPSSSLGTQTYICNVNHKPSNTKVDKKVEPKSCDKTHTCPPCPAPEAAGGPSVFLFPPKPKDTLMISRTPEVTCVVVDVSHEDPEVKFNWYVDGVEVHNAKTKPREEQYASTYRVVSVLTVLHQDWLNGKEYKCKVSNKALPAPIEKTISKAKGQPREPQVYTLPPSRCELTKNQVSLSCAVKGFYPSDIAVEWESNGQPENNYKTTPPVLDSDGSFFLVSKLTVDKSRWQQGNVFSCSVMHEALHNHYTQKSLSLSPDYKDDDDK
chain: EPKSSDKTHTCPPCPAPELLGGPSVFLFPPKPKDTLMISRTPEVTCVVVDVSHEDPEVKFNWYVDGVEVHNAKTKPREEQYNSTYRVVSVLTVLHQDWLNGKEYKCKVSNKALPAPIEKTISKAKGQPREPQVCTLPPSRDELTKNQVSLWCLVKGFYPSDIAVEWESNGQPENNYKTTPPVLDSDGSFFLYSKLTVDKSRWQQGNVFSCSVMHEALHNRYTQKSLSLSP
light: DIVMTQSPLSLPVTPGEPASISCRSSQSLVHSNRNTYLHWYQQKPGQAPRLLIYKVSNRFSGVPDRFSGSGSGTDFTLKISRVEAEDVGVYYCGQGTQVPYTFGQGTKLEIKRTVAAPSVFIFPPSDEQLKSGTASVVCLLNNFYPREAKVQWKVDNALQSGNSQESVTEQDSKDSTYSLSSTLTLSKADYEKHKVYACEVTHQGLSSPVTKSFNRGEC
notes: one-arm antibody
B3: CE115HA000 H chain altered form N53A (antibody, human IgG1, kappa, L234A L235A, N297A, name in Kabat numbering)
heavy: QVQLVESGGGVVQPGRSLRLSCAASGFTFSNAWMHWVRQAPGKGLEWVAQIKAKSANYATYYAESVKGRFTISRDDSKNSLYLQMNSLKTEDTAVYYCRYVHYGAYYGVDAWGQGTTVTVSSASTKGPSVFPLAPSSKSTSGGTAALGCLVKDYFPEPVTVSWNSGALTSGVHTFPAVLQSSGLYSLSSVVTVPSSSLGTQTYICNVNHKPSNTKVDKKVEPKSCDKTHTCPPCPAPEAAGGPSVFLFPPKPKDTLMISRTPEVTCVVVDVSHEDPEVKFNWYVDGVEVHNAKTKPREEQYASTYRVVSVLTVLHQDWLNGKEYKCKVSNKALPAPIEKTISKAKGQPREPQVYTLPPSRCELTKNQVSLSCAVKGFYPSDIAVEWESNGQPENNYKTTPPVLDSDGSFFLVSKLTVDKSRWQQGNVFSCSVMHEALHNHYTQKSLSLSPDYKDDDDK
chain: EPKSSDKTHTCPPCPAPELLGGPSVFLFPPKPKDTLMISRTPEVTCVVVDVSHEDPEVKFNWYVDGVEVHNAKTKPREEQYNSTYRVVSVLTVLHQDWLNGKEYKCKVSNKALPAPIEKTISKAKGQPREPQVCTLPPSRDELTKNQVSLWCLVKGFYPSDIAVEWESNGQPENNYKTTPPVLDSDGSFFLYSKLTVDKSRWQQGNVFSCSVMHEALHNRYTQKSLSLSP
light: DIVMTQSPLSLPVTPGEPASISCRSSQSLVHSNRNTYLHWYQQKPGQAPRLLIYKVSNRFSGVPDRFSGSGSGTDFTLKISRVEAEDVGVYYCGQGTQVPYTFGQGTKLEIKRTVAAPSVFIFPPSDEQLKSGTASVVCLLNNFYPREAKVQWKVDNALQSGNSQESVTEQDSKDSTYSLSSTLTLSKADYEKHKVYACEVTHQGLSSPVTKSFNRGEC
notes: one-arm antibody
B4: CE115HA000 H chain altered form N53D (antibody, human IgG1, kappa, L234A L235A, N297A, name in Kabat numbering)
heavy: QVQLVESGGGVVQPGRSLRLSCAASGFTFSNAWMHWVRQAPGKGLEWVAQIKAKSDNYATYYAESVKGRFTISRDDSKNSLYLQMNSLKTEDTAVYYCRYVHYGAYYGVDAWGQGTTVTVSSASTKGPSVFPLAPSSKSTSGGTAALGCLVKDYFPEPVTVSWNSGALTSGVHTFPAVLQSSGLYSLSSVVTVPSSSLGTQTYICNVNHKPSNTKVDKKVEPKSCDKTHTCPPCPAPEAAGGPSVFLFPPKPKDTLMISRTPEVTCVVVDVSHEDPEVKFNWYVDGVEVHNAKTKPREEQYASTYRVVSVLTVLHQDWLNGKEYKCKVSNKALPAPIEKTISKAKGQPREPQVYTLPPSRCELTKNQVSLSCAVKGFYPSDIAVEWESNGQPENNYKTTPPVLDSDGSFFLVSKLTVDKSRWQQGNVFSCSVMHEALHNHYTQKSLSLSPDYKDDDDK
chain: EPKSSDKTHTCPPCPAPELLGGPSVFLFPPKPKDTLMISRTPEVTCVVVDVSHEDPEVKFNWYVDGVEVHNAKTKPREEQYNSTYRVVSVLTVLHQDWLNGKEYKCKVSNKALPAPIEKTISKAKGQPREPQVCTLPPSRDELTKNQVSLWCLVKGFYPSDIAVEWESNGQPENNYKTTPPVLDSDGSFFLYSKLTVDKSRWQQGNVFSCSVMHEALHNRYTQKSLSLSP
light: DIVMTQSPLSLPVTPGEPASISCRSSQSLVHSNRNTYLHWYQQKPGQAPRLLIYKVSNRFSGVPDRFSGSGSGTDFTLKISRVEAEDVGVYYCGQGTQVPYTFGQGTKLEIKRTVAAPSVFIFPPSDEQLKSGTASVVCLLNNFYPREAKVQWKVDNALQSGNSQESVTEQDSKDSTYSLSSTLTLSKADYEKHKVYACEVTHQGLSSPVTKSFNRGEC
notes: one-arm antibody
B5: CE115HA000 H chain altered form N53G (antibody, human IgG1, kappa, L234A L235A, N297A, name in Kabat numbering)
heavy: QVQLVESGGGVVQPGRSLRLSCAASGFTFSNAWMHWVRQAPGKGLEWVAQIKAKSGNYATYYAESVKGRFTISRDDSKNSLYLQMNSLKTEDTAVYYCRYVHYGAYYGVDAWGQGTTVTVSSASTKGPSVFPLAPSSKSTSGGTAALGCLVKDYFPEPVTVSWNSGALTSGVHTFPAVLQSSGLYSLSSVVTVPSSSLGTQTYICNVNHKPSNTKVDKKVEPKSCDKTHTCPPCPAPEAAGGPSVFLFPPKPKDTLMISRTPEVTCVVVDVSHEDPEVKFNWYVDGVEVHNAKTKPREEQYASTYRVVSVLTVLHQDWLNGKEYKCKVSNKALPAPIEKTISKAKGQPREPQVYTLPPSRCELTKNQVSLSCAVKGFYPSDIAVEWESNGQPENNYKTTPPVLDSDGSFFLVSKLTVDKSRWQQGNVFSCSVMHEALHNHYTQKSLSLSPDYKDDDDK
chain: EPKSSDKTHTCPPCPAPELLGGPSVFLFPPKPKDTLMISRTPEVTCVVVDVSHEDPEVKFNWYVDGVEVHNAKTKPREEQYNSTYRVVSVLTVLHQDWLNGKEYKCKVSNKALPAPIEKTISKAKGQPREPQVCTLPPSRDELTKNQVSLWCLVKGFYPSDIAVEWESNGQPENNYKTTPPVLDSDGSFFLYSKLTVDKSRWQQGNVFSCSVMHEALHNRYTQKSLSLSP
light: DIVMTQSPLSLPVTPGEPASISCRSSQSLVHSNRNTYLHWYQQKPGQAPRLLIYKVSNRFSGVPDRFSGSGSGTDFTLKISRVEAEDVGVYYCGQGTQVPYTFGQGTKLEIKRTVAAPSVFIFPPSDEQLKSGTASVVCLLNNFYPREAKVQWKVDNALQSGNSQESVTEQDSKDSTYSLSSTLTLSKADYEKHKVYACEVTHQGLSSPVTKSFNRGEC
notes: one-arm antibody
B6: CE115HA000 H chain altered form N31W (antibody, human IgG1, kappa, L234A L235A, N297A, name in Kabat numbering)
heavy: QVQLVESGGGVVQPGRSLRLSCAASGFTFSWAWMHWVRQAPGKGLEWVAQIKAKSNNYATYYAESVKGRFTISRDDSKNSLYLQMNSLKTEDTAVYYCRYVHYGAYYGVDAWGQGTTVTVSSASTKGPSVFPLAPSSKSTSGGTAALGCLVKDYFPEPVTVSWNSGALTSGVHTFPAVLQSSGLYSLSSVVTVPSSSLGTQTYICNVNHKPSNTKVDKKVEPKSCDKTHTCPPCPAPEAAGGPSVFLFPPKPKDTLMISRTPEVTCVVVDVSHEDPEVKFNWYVDGVEVHNAKTKPREEQYASTYRVVSVLTVLHQDWLNGKEYKCKVSNKALPAPIEKTISKAKGQPREPQVYTLPPSRCELTKNQVSLSCAVKGFYPSDIAVEWESNGQPENNYKTTPPVLDSDGSFFLVSKLTVDKSRWQQGNVFSCSVMHEALHNHYTQKSLSLSPDYKDDDDK
chain: EPKSSDKTHTCPPCPAPELLGGPSVFLFPPKPKDTLMISRTPEVTCVVVDVSHEDPEVKFNWYVDGVEVHNAKTKPREEQYNSTYRVVSVLTVLHQDWLNGKEYKCKVSNKALPAPIEKTISKAKGQPREPQVCTLPPSRDELTKNQVSLWCLVKGFYPSDIAVEWESNGQPENNYKTTPPVLDSDGSFFLYSKLTVDKSRWQQGNVFSCSVMHEALHNRYTQKSLSLSP
light: DIVMTQSPLSLPVTPGEPASISCRSSQSLVHSNRNTYLHWYQQKPGQAPRLLIYKVSNRFSGVPDRFSGSGSGTDFTLKISRVEAEDVGVYYCGQGTQVPYTFGQGTKLEIKRTVAAPSVFIFPPSDEQLKSGTASVVCLLNNFYPREAKVQWKVDNALQSGNSQESVTEQDSKDSTYSLSSTLTLSKADYEKHKVYACEVTHQGLSSPVTKSFNRGEC
notes: one-arm antibody
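Note: homodimer amine-coupled to a CM4 sensor chip, run at 25 °C in HBS-EP+ buffer, with kinetic parameters derived in Biacore T200 Evaluation Software.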

In this test the target is T1, CD3 epsilon homodimer protein (UniProt P07766 23-126).
T1 construct: also called CD3 (CD3 epsilon)
T1 sequence (P07766 23-126): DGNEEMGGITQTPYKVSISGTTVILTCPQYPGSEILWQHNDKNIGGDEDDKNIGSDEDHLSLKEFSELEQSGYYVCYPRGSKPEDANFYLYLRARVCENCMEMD
The experiment in a line: SPR Biacore T200, CD3 epsilon homodimer on chip, antibody as analyte. (In general: SPR reads the build-up and loss of mass on a sensor chip optically.)
For the molecule B1, the “KD ratio (KD of CE115HA000 / KD of altered form)” value is 0.67.

On to B2, for which the “KD ratio (KD of CE115HA000 / KD of altered form)” value worked out at 1.1.

In the case of B3, the “KD ratio (KD of CE115HA000 / KD of altered form)” value stood at 0.55.

Consider B4, for which the “KD ratio (KD of CE115HA000 / KD of altered form)” value was found to be 0.55.

Take B5: the “KD ratio (KD of CE115HA000 / KD of altered form)” value turned out to be 0.95.

In the case of B6, the “KD ratio (KD of CE115HA000 / KD of altered form)” value was 1.07.

The values above are taken from patent US20240270846A1 (published 2024).
